Data as given in the nanobody polyreactivity screen of Harvey et al. (2022).

Experiment: yeast display, Sf9 membrane polyspecificity reagent, FACS + sequencing; frameworks hold sequencing errors
How it was run: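 Polyreactivity labels are assigned by the sorting gate from which each nanobody was recovered. The gates were low and high (top ~1%), set on anti-HA fluorescence for expression and streptavidin fluorescence for reagent binding. Before sorting, galactose-induced (36–48 hours) yeast display cells were stained for 1 hour at 4 °C with 10% biotinylated, detergent-solubilized Sf9 membrane reagent.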

Sequence	polyreactivity (PSR sort gate)
HVQLVESGGGLVQPGGSLRLSCAASGLTFPSYAMGWYRQAPGKERELVAAISSGDSTNYADSVKGRFTISRDNAKNTVYLQMNSLKPEDTAVYYCAVGLPHGGRSLYGSWYRFDYWGQGTQVTVSS	low polyreactivity
QVQIVESGGGLVQAGGSLRLSCAASGYTFRFNAMGWYRQAPGKEREFVAAIDFGGAGTYYADSVKGRFTISRDNAKNTVYLQMNSLKPEDTAVYYCNARDGVTTEFDYWGQGTQVTVSS	low polyreactivity
QVQLVESGGGLVQAGGSLRLSCAASGSTFGRNAMGWYRQAPGKERELVAAITASGGTTYYADSVKGRFTISRDNAKNTVYLQMNSLKPEDTAVYYCARAGHFSFKDDYWGQGTQVTVSS	low polyreactivity
QVQLVESGGGLVQAGGSLRLSCAASGIIFRYNAMGWYRQAPGKERELVAAISRSSGSTYYADSVKGRFTISRDNAKNTVYLQMNSLKPEDTAVYYCAAYPRYRVEYWGQGTQVTVSS	high polyreactivity
QVQLVESGGGLVQAGGSLRLSCAASGSTFYSYAMGWYRQAPGKERELVAAIDSGGSTYYADTVKGRFTISRDNAKTTVYLQKNSLKPEDTAVYYCAVRVTSYYRTKDYWGQGTQVTVSS	low polyreactivity
QVQLVESGGGLVQAGGSLRLSCAASGRIFKLYAMGWDRQAPGKERELVAAISKSGGNTYADSVKGRFTISRDNAKNTVYLQMNSLKPEDTAVYYCAATVQSTSDPFDYWGQGTQVTVSS	low polyreactivity
QVQIVESGPGLVQAGASLSLSCAASGSIFRPYAMGWYIQAPGKDRELVAAITWSGGRTYYADSVKGRFTISRDNAKNTVYLKMNSLKREDTAVYYCAADDSEGFDYWGQGNQVTVSS	high polyreactivity
QVQLVESGGGLVQAGGSLRLSCAASGLIFGRYAMGWYRQAPGKERELVAAISSSGVRTYYADSVKGRFTISRDNAKNTVYLQMNSLKPEDTAVSYCAAAYWSSREDTVIKSYYWGQGTQVTVSS	high polyreactivity
QVQLVESGGGLVQAGGSLRVSCAASGRTFRSYAMGWYRQAPGKERELVAAIRRGGSTNYADSVKGRFPISRDNAKYTVYLQMNSLKPEDTAVYYCAARYTRWRYNYKDYDYWGQGTQVTVSS	high polyreactivity
QVQLVESGGGLVQSGGSLRLSCAASGSTFKYYAMGWYRQAPGKERELVAAISRSGGSTYYADSVKGRFTISRDNAKNTVYIQMNSLKPEDTAVYYCNAYYRYSFCELDKYGYWGQGTQVTVSS	high polyreactivity
QVQLVESGGGLVMAVGSLRLSCAASGSTFAGNAMGWYRQAPGKERELVAAISIVGSTSYADSVKGRFTISRDNAKITFYLQMNSLKPEDTAVYDCAAEWVTSYLNYYHWGQGTQVTVSS	low polyreactivity
QVQLVESGGGLVQAGGSLRLSCAASGSIFSLYDMGWYRQAPGKERELVASITWSGGSTDYADSVKGRFTISRDNAKNTVYLQMNSLKPEDTAVYYCAAYSYTSIFDYWGQGTQVTVSS	low polyreactivity
QVQLVESGGGLVQAGGSLRLSCAASGSIFVYYAMGWYRQAPGKERELVATIRGSGGSTYYADSVKGRFTISRDNAKNTVYLQMNSLKPEDTAVYYCAATIKYGGRWYGSWGQGTQVTVSS	high polyreactivity
QVQLVESGGGLVQAGGSLRLSCAASGSTFRYYSMGWYRQAPGKERELVASISSGGSTNYADSVKGRFTISRDNAKNTVYLQMNSLKPGDTAVYYCNADSWTVNRRYYYYRYEYWGQGTQVTVSS	low polyreactivity
QVQLVESGGGLVQAGGSLRLSCAASGSTFGWYAIGWNRQAPGKERELVAAINSDGSTYYADSVKGRFTISRDNAKNNVYLQMNSLKPEDPAVYYCATDDALYGYLYHNYGYWGEGTQVTVSS	low polyreactivity
QVQLVESGGGLVQAGGSLRLSCAASGFIFSWYAMGWSRQAPGKERELVAAIDQSGDSTYYADSVKGRFTISRDNAKNTVYLQMNSLKPEDTAVYYCAAQSYDYWYDYDYWGQGTQVTVSS	high polyreactivity
QVQLLESGGGLVQAGGSLRLSCAASGRTFSGYAMGWYRQAPGKERELVAAISESGDGTYYADSVKGRFTISRDNAKNTVYLQMNSLKPEDTAVYYCAADGTLFSEYYWFFGYHDYWGQGTQVTVSS	high polyreactivity
QVQLVESGGGLVQAGGSLRLSCAASGFIWSYVMGWYRQAPGKERQLVAAISRSGGRTYYADSVKGRFTISRDNEKNTVYLQMNSLKPEDTAVYYCAKDGGWSRLHYNYWGQGTQVTVSS	high polyreactivity
QVQLVESGGGLVQAGGSLRLSCAASGGTFSTYAMGWYRQAPGKERELVAAISYSTGNTYYADSVKGRFTISRDNAKNTVYFQMNSLKPEDTAVYYCATLGGSQRGLGSFTRKYDYWGQGTQVTVSS	low polyreactivity
QVQLVESGGGLVQAGGSLRLSCAASGRTFIIYTMGWYRQAPGKEREFVAAITRSGGGTYYADSVKGRFTISRDNAKNTVYLQMNSLKPEDTAVYYFAADRFYDQAYDYWGQGTQVTVSS	low polyreactivity
QVQLVESGGGLVQAGGSLRLSCAASGSIFGYNAMGWYRQAPGKERELVAAISSSGSSTYADSVKGRFTISRDNAKNTVYLQMNSLKPEDTAVYYCNKTTLLTVEYDYWGQGTQVTVSS	low polyreactivity
QVQLVESGGGLVQAGGSLRLSCAASGLTFRRNAMGWYRQAPGKERELVAVNSRSGGSTYYADSVKGRFTISRDNAKNTVYLQMNCLKPEDTAVYYCNKRTRRTYDYWGQGTQVTVSS	high polyreactivity

Sequence	polyreactivity (PSR sort gate)
QVQLVESGGRLVQAGGSLRLSCAASGGIFYYNAMGRYRQAPGKERELVAAIRYRGGSTYYADSVKGRFTISRDNAKNTVYLQMNSLKPEDTAVYYCAADYYRSRYYYWGQGTQVTVSS	low polyreactivity
QVQLVESGGGLVQAGGSLRLSCAASGSIFYSYAKGWYRQAPGKERELVAAISWDASTYFADSVKGRFTISRDNAKYSVYLQMNSLKPEDTAVYYCNADIPYYFVYDAYDYWGQGTQVTVSS	low polyreactivity
QVQLVESGGGLVQAGGSLRLSCAASGRTFGYNAMGWYRQAPGKERELVAAISSSGGSTYYADSVKGRFTISRDNAKNTVYLQMNSLKPEDTAVYYCATQGYSWAHGSDYWGQGTQVTVSS	low polyreactivity
QVQLVESGGGLDQAGVRLRLSCAASGRIVSSYAMGWYRQAPGKERELVAAIRRGGGSTSYADSVKGRFTISRDNAKKTVYLQMNSLKPEDTAVYYCAADSPRGQVHYIGGYWGQGTQVTVSS	low polyreactivity
QVQLVESGGGLVQAGGSLRLSCAASGNIFPDYAMGWYRQAPGKERELVAAISWSGGSTYYADSVKGRFTISRDNAKNTVYLQMNSLKPEETAVYYCAAGRRGRSYNRIRYDYWGQGTQVTVSS	high polyreactivity
QVQLVESGGGLVQAGGSLRLSCAASGSTFGDYAMGWYRQAPGKERELVAAISVRGGSTYYADSVKGRFTISRDYAQNTVYLQMNSLKPEDTAVYYCNKDLYRYPGYDSWGQGTQVTVSS	high polyreactivity
QVQLVESGGGLVQAGGSLRLSCAPCGSIFPAYTMGWYRRAPGKERELVAAISRRGGSTYYADCVKGRFTISRDNEKNTVYLQMNRLKPEDTAVYDCAKVPDYRFEYWGQGSQVTVSS	high polyreactivity
QVQLVESGGGIVQAGGSLRLSCAASGRIFGTYGMGWYRQAPGKERELVAAISGGGSTNYADSVKGRFTISRDNAKNTVYLQMNSLKPEDTAVYYCAARYPPYRSWYSYDYWGHGTQVTVSS	low polyreactivity
QVQLVESGGGLVQAGGSLRLSCAASGRTYYDYAKGCYRQAPGKEREFVSAITDRDASTSYADSVKGRFTISRDNAKTTVYLQMNSLKPYDTAVYYCAADEYWYKPYVGELYAYVYWGEGTQVTVSS	low polyreactivity
QVQLVESGGGLVQAGGSLRLSCAASGLIFRYYAMGWYRQAPGKERELVAAITWRGGRTYYADSVKGRFTISRDNAKNTVYLQMNSLKPEDTAVYYCNKDGPYQVITYDYWGQGTQVTVSS	high polyreactivity
QVQLVESGGGLVQAGGSLRLSCAASGRTFPYYAMGWYRQAPGKERELVAAITWSGGTTYYADSVKGRFTISRDNAKNTVYLQMNSLKPEDTAVYYCAADFYGPDGYDYWGQGTQVTVSS	low polyreactivity
QVQLVESGGGLVQAGGSLRLSCAASGRTFLHNAKGWYRQAHGKERELVAAIDSGGTTHYADSVKGRFTISRDNAKNTVYLQMKSLKPEDTAVYYCAARPTRGNWWYGYWGQGTQVTVSS	low polyreactivity
QVQLVESGGRLVQAGGSLRLSCAASGLTFGSYAMGWYRQAPGKESELVAGISARAGRTYYADSVKGRFTISRDNAKNTVYLQMNSLKPEDTAVYYCAARVYSRYHTKGFSNYQYDYWGQGTQVTVSS	high polyreactivity
QVQLVESGGGLVQAGGSLRLSCAASGGIFYRYVMRWYRQAPGKERELVAAITFSGGSTYYSDSVKGRFTISRDNAKNTVYLQMNSLKPEDTAVYYCAADTYYNPYWLDYWGQGTQVTVSS	low polyreactivity
QVQLVESGGGLVQAGGSLRLSCAASGRIFAYYTMGWYRQAPGKERELVAAITKRGGSTYYADSVKGRFTISRDNAKNTVYLQMNSLKPEDTAVYYCAADPHRYRYRSPHDYWGQGTQVTVSS	high polyreactivity
QVQLVESGGGLVQAGGSLRLSCAASGSIFDSNAMGWYRQAPGKERELVAAMDDAGATTYYADSVQGRFTISRDNAKNTVYLQMNSLKPEDTAVYYCAAETYTGSLAYYRVYYYWGQGTQVTVSS	low polyreactivity
QVQLVESGGGLVQAGGSLRLSWAASGSISGFNAMGWYRQAPGKERELVAAISYSGGRTYYADSVKGRFTISRDNAKNNVYLHMNSLKPEDTAVFYCAADKFMYSKYTVFRDVYWGQGTQVTLSS	high polyreactivity
QVQLVESGGGLVQAGGSLRLSCAASGRIFAWYTMVWYRQAPGKERELVATISSSGGSTYYADSVKGLFTISRDNAKNTVYLQMNSLKPEDTAVYYCAAQYYPYSYAHRYGYCGQGTQVTVSS	high polyreactivity
QDQLVESGGGLVQEGRILRLISADSGRISRFNAMGWYRPAPGKERELVAAITRGASTYYADSVKGRFTISRDNAKNTVYLEMNSVKPEVTAVYYCAAAPSYSWTSVARYFYWGQGTQVPVSS	high polyreactivity
QVQLVESAGGLVQAGGILRLSCAASGRIFTRNAMGWYRQAPGKERELVAAISSSSGSKYYADSVKGRFTISRDNAKNTVYLQMNSLKPEDTAVYYCAARSYYYSWGYDHWGQGTQVTVSS	high polyreactivity
QVQLVESGGGLVQAGGSLRLSCAASGRIFPVNAMGWYRQAPGKERELVARISWRGGTYYADSVKGRFTISRDNAKNTVYLQMNSLKPEDTAVYYCAATLPSTSYWYHYGYWGQGTQVTVSS	high polyreactivity
